Measured values published in paper doi:10.1101/2021.12.09.471704.
Substitutions are numbered along the chain they refer to. Like-named read-outs stand apart in the source and are kept apart here.

Key:
[1] = target: T1, SiAgo M2;SiAga1 (complex subunit) (Sulfolobus islandicus M164;Sulfolobus …, UniProt C4KI01;C4KI00 1-459;1-243, K183A|); assay: EMSA
T1 sequence 1: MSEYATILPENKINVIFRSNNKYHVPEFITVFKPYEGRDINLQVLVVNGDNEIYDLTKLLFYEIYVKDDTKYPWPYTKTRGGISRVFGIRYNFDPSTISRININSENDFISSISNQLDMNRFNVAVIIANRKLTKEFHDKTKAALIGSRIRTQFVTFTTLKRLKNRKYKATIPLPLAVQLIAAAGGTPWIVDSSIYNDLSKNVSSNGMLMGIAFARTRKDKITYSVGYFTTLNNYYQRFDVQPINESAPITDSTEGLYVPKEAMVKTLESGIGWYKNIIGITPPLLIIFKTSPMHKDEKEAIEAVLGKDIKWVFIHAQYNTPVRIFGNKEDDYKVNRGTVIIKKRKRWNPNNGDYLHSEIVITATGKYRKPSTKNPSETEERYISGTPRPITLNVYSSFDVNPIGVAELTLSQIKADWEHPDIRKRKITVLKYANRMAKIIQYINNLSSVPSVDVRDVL
T1 sequence 2: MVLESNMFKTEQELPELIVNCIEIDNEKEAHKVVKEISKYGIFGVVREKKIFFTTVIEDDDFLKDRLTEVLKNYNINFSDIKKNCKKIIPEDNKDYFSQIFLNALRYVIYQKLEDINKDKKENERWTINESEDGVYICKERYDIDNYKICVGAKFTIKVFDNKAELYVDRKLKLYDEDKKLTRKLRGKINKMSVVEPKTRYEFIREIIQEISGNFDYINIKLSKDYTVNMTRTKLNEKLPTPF

[2] = target: T2, SiAgo M1;SiAga1 (complex subunit) (Sulfolobus islandicus M164;Sulfolobus …, UniProt C4KI01;C4KI00 1-459;1-243, K142A|); assay: EMSA
T2 sequence 1: T1 sequence 1 with K142A, A183K
T2 sequence 2: T1 sequence 2

[3] = target: T3, SiAgo (complex subunit);SiAga1 (complex subunit) (Sulfolobus islandicus M164;Sulfolobus …, UniProt C4KI01;C4KI00 1-459;1-243, |); assay: EMSA
T3 sequence 1: T1 sequence 1 with A183K
T3 sequence 2: T1 sequence 2

SiAgo = target: T4, SiAgo (Sulfolobus islandicus M164, UniProt C4KI01 1-459); assay: EMSA
T4 sequence: T1 sequence 1 with A183K

[4] = target: T1, SiAgo M2;SiAga1 (complex subunit); assay: EMSA; remark: listed apart in the source
[5] = target: T2, SiAgo M1;SiAga1 (complex subunit); assay: EMSA; remark: listed apart in the source
[6] = target: T3, SiAgo (complex subunit);SiAga1 (complex …); assay: EMSA; remark: listed apart in the source
[7] = target: T3, SiAgo (complex subunit);SiAga1 (complex …); assay: competition

B1: guide 5P-RNA + TDNA (mixed)
RNA: UCAAAGCUUAGAUACCCUGGA
DNA: CCTCCAGGGTATCTAAGCTTTGAA
modifications: guide 5' phosphate
Q: Does B1 bind [1]?
A: binds

Q: Does B1 bind [2]?
A: binds

Q: Does B1 bind [3]?
A: binds

B2: 5P-RNA (ssRNA)
RNA: UCAAAGCUUAGAUACCCUGGA
modifications: 5' phosphate
Q: What does the source list for B2?
A: binding result (SiAgo): binds; binding result [4]: binds; binding result [5]: binds; binding result [6]: binds

B3: guide 5P-RNA + TRNA (mixed)
RNA 1: UCAAAGCUUAGAUACCCUGGA
RNA 2: CCUCCAGGGUAUCUAAGCUUUGAA
modifications: guide 5' phosphate
Q: Does B3 bind [3]?
A: binds

B4: guide 5P-RNA + TRNA competitor (mixed)
RNA 1: UCAAAGCUUAGAUACCCUGGA
RNA 2: CCUCCAGGGUAUCUAAGCUUUGAA
modifications: guide 5' phosphate
Q: Does B4 bind [7]?
A: binds

B5: guide 5P-RNA + TDNA competitor (mixed)
RNA: UCAAAGCUUAGAUACCCUGGA
DNA: CCTCCAGGGTATCTAAGCTTTGAA
modifications: guide 5' phosphate
Q: Does B5 bind [7]?
A: binds
